The values that follow come from paper PMC3936774.

Read-outs that look alike come from different tables or passages of the source.

Data set [1] addresses T1, Ec Hfq F42W (Escherichia coli, UniProt P0A6X3 1-102, F42W). Briefly: fluorescence polarization.
Data set [2] deals with T2, Ec Hfq G77W (Escherichia coli, UniProt P0A6X3 1-102, G77W). Briefly: fluorescence polarization.
Data set [3] addresses T3, Ec Hfq Y83W (Escherichia coli, UniProt P0A6X3 1-102, Y83W). Briefly: fluorescence polarization.
In another data set the target is Ec Hfq K31W (Escherichia coli, UniProt P0A6X3 1-102, K31W). Put plainly: fluorescence polarization.
A further data set addresses Ec Hfq Q95W (Escherichia coli, UniProt P0A6X3 1-102, Q95W). Briefly: fluorescence polarization.
Data set [4] has as its target T4, Ec Hfq F39W (Escherichia coli, UniProt P0A6X3 1-102, F39W). Briefly: fluorescence polarization.
In data set [5] the target is T5, Ec Hfq R17W (Escherichia coli, UniProt P0A6X3 1-102, R17W). Put plainly: fluorescence polarization.
Data set [6] addresses T6, Ec Hfq F11W (Escherichia coli, UniProt P0A6X3 1-102, F11W). Briefly: fluorescence polarization.
Data set [7] has as its target T2, Ec Hfq G77W. Put plainly: Trp fluorescence quenching.
Data set [8] concerns the target T3, Ec Hfq Y83W. Put plainly: Trp fluorescence quenching.
Another data set deals with Ec Hfq Q33W (Escherichia coli, UniProt P0A6X3 1-102, Q33W). Briefly: Trp fluorescence quenching.
Data set [9] addresses T4, Ec Hfq F39W. Briefly: Trp fluorescence quenching.
Data set [10] concerns the target T1, Ec Hfq F42W. Put plainly: Trp fluorescence quenching.
In data set [11] the target is T5, Ec Hfq R17W. Put plainly: Trp fluorescence quenching.
A further data set has as its target T7, Lm Hfq F43W (Listeria monocytogenes, UniProt Q92C58 1-77, F43W).
T7 sequence: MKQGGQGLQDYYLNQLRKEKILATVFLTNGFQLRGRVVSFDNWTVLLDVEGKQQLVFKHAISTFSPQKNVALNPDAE
Briefly: Trp fluorescence quenching.

Another data set addresses Sa Hfq Q31W (Staphylococcus aureus, UniProt A0A0H3JV59 1-77, Q31W). Put plainly: Trp fluorescence quenching.
The target in another data set is Sa Hfq F25W (Staphylococcus aureus, UniProt A0A0H3JV59 1-77, F25W). Put plainly: Trp fluorescence quenching.
Another data set deals with Hfq WT (Escherichia coli, UniProt P0A6X3 1-102). Briefly: fluorescence polarization.
The target of data set [12] is T6, Ec Hfq F11W. Put plainly: Trp fluorescence quenching.
For the next data set, the target named is Ec Hfq Y25W (Escherichia coli, UniProt P0A6X3 1-102, Y25W). Put plainly: Trp fluorescence quenching.
Data set [13] concerns the target T3, Ec Hfq Y83W. Put plainly: Trp fluorescence quenching. This is another data set of the same source.

B1: A15 (fluorescein) (ssRNA)
RNA: AAAAAAAAAAAAAAA
On to B1, for which the equilibrium dissociation constant (Kd) in the data set with Ec Hfq F42W [1] is 0.28 ± 0.09 nM; with Ec Hfq G77W [2], 2.9 ± 1.7 nM; with Ec Hfq Y83W [3], 7.4 ± 2.8 nM; with Ec Hfq K31W, 1.4 ± 0.5 nM; in the data set with Ec Hfq Q95W it was 2.6 ± 1.1 nM; with Ec Hfq F39W [4], 0.59 ± 0.35 nM. Besides, the Kd with Ec Hfq R17W [5] turned out to be 3.7 ± 1.5 nM; in the data set with Ec Hfq F11W [6], 7.1 ± 0.6 nM.

B2: hfq mRNA site A 24-mer (structured_RNA)
RNA: AUUUUUUCAGAAUCGAAAGGUUCA
Turning to B2, the binding result in the data set with Ec Hfq G77W [7], with Ec Hfq Y83W [8], in the data set with Ec Hfq Q33W and in the data set with Ec Hfq F39W [9] was “binds” in each case.

B3: hfq 5'-UTR (64 nt) (structured_RNA)
RNA: GGAUUUUUUCAGAAUCGAAAGGUUCAAAGUACAAAUAAGCAUAUAAGGAAAAGAGAGAAUGGGAUC
On to B3, for which the binding result in the data set with Ec Hfq F42W [10], with Ec Hfq Q33W and in the data set with Ec Hfq R17W [11] was “binds” in each case.

B4: U6 (ssRNA)
RNA: UUUUUU
As for B4, the binding result with Ec Hfq F42W [10] and with Lm Hfq F43W was “binds” each time.

B5: (AU)3A (ssRNA)
RNA: AUAUAUA
B5: the binding result in the data set with Lm Hfq F43W, with Sa Hfq Q31W and with Sa Hfq F25W was “binds” in each case.

B6: U16 (fluorescein) (ssRNA)
RNA: UUUUUUUUUUUUUUUU
B6: binding in the data set with Hfq WT was characterised by a dissociation constant (Kd) of 6.6 nM.

B7: (AAG)5 (ssRNA)
RNA: AAGAAGAAGAAGAAG
Take B7: the binding result with Ec Hfq Q33W and in the data set with Ec Hfq F11W [12] was “binds” in each case.

B8: A15 (ssRNA)
RNA: AAAAAAAAAAAAAAA
Turning to B8, the binding result with Sa Hfq Q31W, with Ec Hfq Y25W, with Ec Hfq Q33W and in the data set with Sa Hfq F25W was “binds” throughout.

B9: hfq mRNA site B 24-mer (ssRNA)
RNA: GCAUAUAAGGAAAAGAGAGAAUGG
B9: the binding result with Ec Hfq F42W [10], in the data set with Ec Hfq Y83W [8], with Ec Hfq Y25W, in the data set with Ec Hfq Q33W, with Ec Hfq F39W [9] and with Ec Hfq F11W [12] was “binds” in each case.

B10: (AC)3A (ssRNA)
RNA: ACACACA
Turning to B10, the binding result with Sa Hfq Q31W and with Sa Hfq F25W was “binds” throughout.

B11: (GGA)5 (ssRNA)
RNA: GGAGGAGGAGGAGGA
On to B11, for which the binding result with Ec Hfq Y83W [13] and in the data set with Ec Hfq F42W [10] was “binds” throughout.

B12: (GU)3G (ssRNA)
RNA: GUGUGUG
With B12, the binding result in the data set with Lm Hfq F43W was “binds”.
